For twelve sequences, protein production results are on record in a protein production outcome set (Wang et al. 2014).

This data set in a line: label from the status in PepcDB records.
With “AYPGFELDIDLALPGRGVTALFGHSGSGKSTCLRCIAGLEKAAEGEVTINGETWQDSRRNLFVAPHRRALGYVFQDANLFRHLTVRRNLAFGLKRIAAAERRVELEQACALLGIEHLLERMPERLSGGEQQRVGIARALLTSPRLLLMDEPLASLDLKRKGEILPYLERLHEELDIPVLYVSHSPDEVARLADHLVLLENGKVRASGPIGETLARVDLPLALDDDAGVVIEGTVSDHDPAYGLLTLVLPGSALQMRVAHAPLAPGKRLRFKVQARDVSLNLRDDAQSSILNRLPVRVLELVDTDTAAHVLVRLDAGGNPLLARITRYSRDQLQLR”, the protein production entry is “failed”.
With “MIWSLLKIYVLMLCTISTVYNTFLLIVCVVGCCVQMEEIVFETKDAVDWSYRSEGVVNLVLAYSGSSPTFLGKVMRIKKLRNTRNENRDRSGSCLTTQEKLIWGEIKDLVSCQNKEIVDYLFVKHVMKPLLGHKYVTPGICLPVEKEFLESVKKIVTSQRHSWRANTLSVDTNRSFALLMDDLTIFSHGQVEDHKPCLTVEIKPKCGFLSSSSFIAEENVIKKSISRFEMYQVLKLRENQISQISEYDPLDLFSGSKDRIHKAIKALYSTPQNSLQVFLNGSLVFGGFRGGICKTTSKLELAFEHTLKDFFKTEDDCGLRANAFIELVAETVYASGALDQLLEVQKLDKYNIEGAIHAYYDLVDQPCKACQELESSKLSNQFGSMHSLPQDEKVNILKDFLISSTAIDCSVMISFRPIETGLSRSSSHGNIQLESTKQEFEYKIHFIDLDMRPLKRMEAYHESDKKITKTYQEMLKKKKGDQPRRF” the entry was “failed”; with “MINMYIPQFNPRIRKDQKSGLFFFEIRDNEGKTVSYQSGFNTKREAENTALEIQQKLRQGYTLDRYTSLYDWFQTWYDLKIRPKKKLSQETKKNYQIYGETLKRLFGDKPIIDIKSSQYQRIMNVYGETVGYDYLSRINSVIRKIIKLAQSDKIVIDDFTSTVELFAGKDGQKVNEKYIHSVEDYHRLISYLENNLNYEDSVVNHVIYVIAKTGMRYGEIIGLTNNDTSLDEHYLHTYKRYNTSTWKWTNAKNESSKRYIPIDDKIVAALSNMIKERERINSLLRIKNKEEFLFFHYGLEHGIPSVATVNKALKKILKKLDIEPIITTKGLRHTYGSYLLHNNIDMGVVARILGHKDIQMLIQVYGHTLTEKIDKEFKEVEQIMNRI”, “failed”; with “MIDTFERTGPLMEASSYPAWAQQLINDCSPAKARVVEHELYQQMRDAKLSPQIMRQYLIGGWPVVEQFAVYMAKNLTKTRFGRHPGEDMARRWLMRNIRVELNHADYWVNWCAAHDVTLEDLHDQRVAPELHALSHWCWQTSSSDSLAVAMAATNYAIEGATGEWSAVVCSTGVYAEAFAEETRKKSMKWLKMHAQYDDAHPWEALEIICTLVGNKPSLQLQAELRQAVTKSYDYMYLFLERCIQLDKVKSPRGRVAALEM”, “not failed”.
With “MYEPPNQFHCLDADVWIEIPNRVIGVTGNCYVGRDYIPKNGKTRYDVKVFVKKIKKEQENPDTLIKDNDLELSKSKSDDIGTLIEKGVNLRNFKKYDEALQIFEKVTELEPSNAQAWHNKGIILGILKKYNEARQAFEKAMEIEPGKNRRDCSSRHLRSARNRTSERNQGSNVEQ” the entry was “failed”.
The same measure for “MVKVLILGQGYVASTFVAGLEKLRKGEIEPYGVPLARELPIGFEDIKIVGSYDVDRAKIGKKLSEVVKQYWNDVDSLTSDPEIRKGVHLGSVRNLPIEAEGLEDSMTLKEAVDTLVKEWTELDPDVIVNTCTTEAFVPFGNKEDLLKAIENNDKERLTATQVYAYAAALYANKRGGAAFVNVIPTFIANDPAFVELAKENNLVVFGDDGATGATPFTADVLSHLAQRNRYVKDVAQFNIGGNMDFLALTDDGKNKSKEFTKSSIVKDILGYDAPHYIKPTGYLEPLGDKKFIAIHIEYVSFNGATDELMINGRINDSPALGGLLVDLVRLGKIALDRKEFGTVYPVNAFYMKNPGPAEEKNIPRIIAYEKMRIWAGLKPKWL”: “not failed”; for “MNKNLSEKMKIAFDIKLKNFGNKIEFAYPNQTLALSTTSNQCSLKCAHCNGHYLNNMVPIEEYEEKVQSRNITSFLLSGGCSYEGDVPINTHINTIKNLKEQGYRLNAHLGLMDKDSIVELCKYLDIVSFDLVFDDETIREVYKMKKSKEDYIEVYNTIQEHTEVAPHICIGLKGGQIKGEYEIIEYLQKNPPNKLTFIVLIPTKGTEYENVEPPELEGVADILCEARINLPDTEINLGCMRPRGVYRKELDQLSIMCGVNRIVLPSRSAKNKAIEMNMTINECKECCVL”: “failed”.
For the sequence “MKTRLLPVAPSAGTLPGLPDAAELAVLRAWHAGLSAREAVERYLGERRAPGQSSRGILGRIRRQLAAFARRRQREDLALLFEIAATERARQGRVADQAVELLRTLPLPEPAISDDVALWLDARAVTVLRAAGIDTLADLTVRVPRRRRWWAAIPGLGQAGARRIEAFFAEHPRLTERAKALIAEQPRGVVVPWEQLRLPHEVDGSEGQFRAPRETSVLTADNDYEAVQAWLSLHESPATQRAYRKEAERLILWAIIERGRPLSSLTTEDAIAYRGFLRRPSPHERWVGPARPRASADWRPFTDGLSARSIAYSLSVLGAMFRWLIQQRYVLANPFAGIKVRGGGRTAALDASHAFSEGEWALVRTLADGLEWSYGWEAAAAQRLRFVLDFAYATGLRASELITARLGGIETDRQSDHWLSLIGKGGRAGKVALPPLARTALDRYLVERGLPVTQARWNPQTPLIGALGLDPGGGITGSRLWSVMRRFFRVAADLIERDHTALAEKLRKASPHWMRHTHASHALARGAELTTVRDNLRHASISTTSIYLHGDDVKRARQIEAAFAAK”, the protein production result is “failed”.
With “MDFKQRHTWLKIASCKSISAKKRASIWQKLTEFDQYEMTTQTFAESFFPVDKLAQILMELETAEACFFDDVTLIWILDDAYPALLREIYEAPPILFCKGNIDLLQQQAIAIVGTRQMSEYGRKACMKIASELAENKLTIVSGMAIGIDSTAHRATLNKQGATIAVLGSGVNKVYPKKNELLAKEIVKEGLLLSEYLPDEEAKRWHFPERNRIISGLAIGTVIIEAAERSGSLITADIALEQNRQVFAVPGNIFIDTWQGTNYLIQEGAKLVMNSNNIIEEFIQIKP” the entry was “failed”; with “MPRWLPRAMVLALALIAAFQLGSWAFHQLTGLLINVLIAFFLALAIEPAVSWMAGRGMRRGFATFLVFLAVLIAAAGFVTLLGSMLAGQIVKMVEEFPDYLDSVINWVNGHFHTELRRVDIQEGLLRSDWLRNYVQNSATGVLDVSAQVLGGLFQLLTVLLFSFYFAADGPRLRRGLCSVLPPARQAEVLRAWEIAVDKTGGYLYSRGLMALVSGVAHYILLEILEVPYAPALAVWVGLVSQFIPTIGTYLAGALPMLIAFTVNPWYALWVLVFVVIYQQFENYVLQPKLTSKTVDIHPAVAFGSVIAGTALLGAVGALIAIPAVATLQAFLGAYVKRYDVTDDPRVHGRRGRRSVSGTSTRLRKLWTRRPEPGLEGPERTEGPERTEGGEGTDGTRDGGSS”, “failed”.
With “MPRRKTKKREEGLSAIDLANEEMGYVLSLIERTDQSLFLTGKAGTGKSTLLRHICATTHKKFVVLAPTGLAALNVGGQTLHSFFKLPLRPIPPNDPDLSTRDRRVFDVFRYTNEHKKLIRSLDLIIIDEVSMVRADVIDAIDKLLGIYRGRQERPFGGVQMLFVGDLYQLEPVVTADDADILKRFYPNPFFFSSEALRATPPVTVELTKVYRQTEQAFVQILDRIRSGRLTEQDLQDINKCVNRHYEPPKDEPVITLATKRRHVSYINERQLEQLQGDPVTLYGTIEGDFPSSSLPTEEELTLKQDAQVIFVSNDKDRRWVNGTLGIVAGFDQESETIDVCLSTGEVVTVEPCIWDNKRFSYNEQANKVEEEVLGRFVQYPLKLAWAITVHKSQGLTFDRVIIDFSEGTFAGGQAYVALSRCRSLEGMVLRAPLAGRDVIVRREIIDFYSRANDLEIINGSLLRAEAEREYAQALRLWNARHYTEAIGAFSQALARKNELDDPLFRRLLVSKLFEMEYARRREEELRRELAEQREVMRRLAKEYVLMGNDCITEAHDAHAAIRCYDKALTLYPDYVEALVRKGKTLAGLNEITTSLSTLNQAIAIAPMDFTARFTLGQVLEKFAYYEEALDAYRQADGLNSQSRSLLKRLIALCEELDEEDEANLYRIRLRKNRDQTGHK” the entry was “failed”; with “MTAQPLLVFDFDGVIVDGMAEYWWSAWMAAQRLNAEPQGLGSDAVPQGFRRLRPWVHHGWEMVLLAAEMPQLDPERWVVDYATEQDMALQRRGWSASLLQEALDQTRQQAVSSDRAAWLGLHQPFPGLVDRLQAFQEEGVDWAVLTTKTAAFTAELLESLGLRPWRLDGREAGPKPEVLLRLQRERVLAGFVEDRRATLETVRDTDGLQSLPCWLASWGYLKPSDREDLPRGIQLIDQDRLATPLAQWP”, “failed”.
